Paper PMC11652881

What was measured:
[1] = target: recombinant wild-type cardiac actin (WTRec-ACTC), as F-actin filaments (human) (UniProt P68032); experiment: co-sedimentation; 7 uM F-actin with 0.1 to 2 uM tropomyosin in 100 mM KCl, 5 mM MgCl2, 20 mM Tris pH 8, 1 h at 25 C; 100,000 rpm 20 min (TLA100); Tm in the pellet by SDS-PAGE densitometry, normalised 0-100; fit to specific binding with Hill slope
[2] = target: recombinant wild-type cardiac actin (WTRec-ACTC), as F-actin filaments (human) (UniProt P68032); experiment: TIRF microscopy of labelled tropomyosin binding along actin filaments; rhodamine phalloidin-labelled ACTC filaments held on bovine ventricular HMM (0.5 mg/ml) on a nitrocellulose-coated coverslip; Alexa-Tm added while recording at 10 frames per second; fluorescence along a filament normalised from 1 to 100 percent; elongation rate = slope of the binding curve from 0 to 15 s

| Kd [1] [µM] | Elongation Rate [2] [s⁻¹] | Substance |
| --- | --- | --- |
| 0.533 | – | tropomyosin purified from bovine ventricular ether powder (from UniProt Q5KR49 1-284) |
| – | 4.56 | Alexa488-labeled tropomyosin (bovine ventricular tropomyosin modified on Cys-190) (from UniProt Q5KR49 1-284) (natural protein) |
